Measured values from paper PMC7948415.

How the values were obtained:
[1] = biological target: properdin (human) (UniProt P27918); test: SPR; Biacore T100; properdin amine-coupled to a CM5 chip (5000 RU); C3b (20 μg/ml), factor B (20 μg/ml) and factor D (2 μg/ml) in HBS/MgCl2 injected at 30 μl/min for 120 s without or with SG7.AF, albicin or anophensin (Fig. 9C: 56.8 nM C3b, 107.5 nM factor B, 41.7 nM factor D, inhibitors 1 μM); dissociation at 1 μM inhibitor fitted to a double exponential decay
[2] = biological target: variant of anophensin with the N-terminus extended by the retention of three amino acids from the signal peptide (Anopheles stephensi) (UniProt A5HUP6); test: crystal structure; lengthened anophensin, space group P2_(1)2_(1)2, three monomers in the asymmetric unit, SAD with a selenomethionine derivative

Sequence of properdin (human) (P27918 28-469): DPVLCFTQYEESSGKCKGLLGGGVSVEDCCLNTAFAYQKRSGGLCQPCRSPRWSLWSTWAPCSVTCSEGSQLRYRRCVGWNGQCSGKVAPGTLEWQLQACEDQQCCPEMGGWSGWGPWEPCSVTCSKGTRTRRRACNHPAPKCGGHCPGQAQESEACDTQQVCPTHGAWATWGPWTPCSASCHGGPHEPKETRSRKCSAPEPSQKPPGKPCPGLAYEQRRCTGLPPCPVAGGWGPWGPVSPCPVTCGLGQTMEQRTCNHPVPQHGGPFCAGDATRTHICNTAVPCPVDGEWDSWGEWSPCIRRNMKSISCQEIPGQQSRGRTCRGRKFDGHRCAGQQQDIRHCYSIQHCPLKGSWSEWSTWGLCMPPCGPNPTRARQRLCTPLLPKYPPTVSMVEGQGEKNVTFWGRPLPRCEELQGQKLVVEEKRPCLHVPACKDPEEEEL

| Substance | koff, fast phase of a double exponential decay [1] [s⁻¹] | koff, slow phase of a double exponential decay [1] [s⁻¹] | stoichiometry N [2] |
| --- | --- | --- | --- |
| SG7.AF-bound C3bBb complex (from UniProt P01024 749-1663; P01024 749-1663; P00751 260-764; C0HMB5 1-119) | 0.02 | 0.003 |  |
| albicin-bound C3bBb complex (from UniProt P01024 749-1663; P01024 749-1663; P00751 260-764; A0A1Y9G8D0 27-142) | 0.02 | 0.003 |  |
| variant of anophensin with the N-terminus extended by the retention of three amino acids from the signal peptide (from UniProt A5HUP6 28-142) (natural protein) |  |  | 2 |
